Data on 3 molecules can be found in patent US20240181074A1 (SHENZHEN ENDURING BIOTECH, published 2024).

Experiment [1] deals with T1, human CD19-Fc protein (AcroBiosystems, Cat. CD19-H5259 / Code CD9-H5259) (human, UniProt P15391 20-291).
T1 construct: not shown: Fc of the bought CD19-Fc
T1 sequence (looked up): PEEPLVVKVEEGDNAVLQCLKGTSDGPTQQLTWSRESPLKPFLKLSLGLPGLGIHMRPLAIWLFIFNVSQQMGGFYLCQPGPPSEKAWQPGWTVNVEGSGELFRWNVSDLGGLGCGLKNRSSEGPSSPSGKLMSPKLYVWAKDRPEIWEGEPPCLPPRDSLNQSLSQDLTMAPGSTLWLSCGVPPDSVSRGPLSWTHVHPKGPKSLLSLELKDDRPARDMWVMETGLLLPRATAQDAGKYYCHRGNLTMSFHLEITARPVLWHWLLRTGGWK
Put plainly: BiaCore SPR, ligand captured by Fc capture. The source says: General procedure: Diluted human CD19 (AcroBiosystems, Cat. CD19-H5259) or human CD3E&3D (AcroBiosystems, Cat. CDD-H52W0) were captured on the sensor chip through Fc capture method. The capture time for human CD3E & CD3D and for human CD19 was set for 12 s and 12-30 s respectively and capture flow rate was […]. Each sample tested was serially diluted into 6-8 concentrations. The association time and dissociation time for the analytes were set for 180 s and 420 s respectively, and the flow rate for the analyte was set at […]. For surface regeneration, 10 mM Glycine-HCl buffer was used; the contact time was set for 30 s and the flow rate was […]. Flow cell 1 and blank injection of buffer in each cycle were used as double references for Response Units subtraction. All data were processed using BiaCore T2000 Evaluation software (version 3.1).
(In SPR one partner is held on a chip, and binding of the other changes the refractive index at the surface.)

A further experiment has as its target T2, human CD19 on cells (human, UniProt P15391 20-556).
T2 sequence (looked up): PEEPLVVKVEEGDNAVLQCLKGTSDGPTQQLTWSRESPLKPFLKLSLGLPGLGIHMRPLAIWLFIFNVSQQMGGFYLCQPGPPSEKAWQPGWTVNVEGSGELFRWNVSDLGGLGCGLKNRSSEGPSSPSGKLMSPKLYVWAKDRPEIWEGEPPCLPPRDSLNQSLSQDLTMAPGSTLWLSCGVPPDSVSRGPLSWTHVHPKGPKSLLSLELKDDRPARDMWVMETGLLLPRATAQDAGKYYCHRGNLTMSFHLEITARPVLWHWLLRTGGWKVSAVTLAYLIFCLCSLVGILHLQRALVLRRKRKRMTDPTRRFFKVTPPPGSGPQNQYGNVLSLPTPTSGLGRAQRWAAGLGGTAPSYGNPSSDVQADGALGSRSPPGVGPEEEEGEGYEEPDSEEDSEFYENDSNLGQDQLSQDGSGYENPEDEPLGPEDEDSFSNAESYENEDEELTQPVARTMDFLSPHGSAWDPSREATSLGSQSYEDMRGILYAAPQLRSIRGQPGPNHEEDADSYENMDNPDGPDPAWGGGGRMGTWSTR
The experiment can be described thus: cell-based or functional assay.

Usually Kd stands for the concentration at which binding is half-saturated. The low end stands for a tighter complex, the high end for a looser complex. What is called koff is the first-order rate constant of dissociation. High values mean a short-lived complex, low ones a long-lived complex. The term kon denotes the second-order rate constant of association.

B1: JY108 (PEGylated BsAb anti-CD3 x anti-CD19) (bispecific antibody)
scFv 1: DIQLTQSPASLAVSLGQRATISCKASQSVDYDGDSYLNWYQQIPGQPPKLLIYDASNLVSGIPPRFSGSGSGTDFTLNIHPVEKVDAATYHCQQSTEDPWTFGGGTKLEIKGCGGGSGGGGSGGGGSQVQLQQSGAELVRPGSSVKISCKASGYAFSSYWMNWVKQRPGQGLEWIGQIWPGDGDTNYNGKFKGKATLTADESSSTAYMQLSSLASEDSAVYFCARRETTTVGRYYYAMDYWGQGTTVTVSS
scFv 2: not shown
modifications: conjugated through a linker to the branched terminal of mPEG (structure given only as a drawing); residue not given
notes: also called PEGylated T-BsAb JY108
As to B1, in experiment [1], the Kd was 1.44 nM, the koff came out at 0.000566 s⁻¹ and the kon worked out at 392000 M⁻¹ s⁻¹. Moreover, in the experiment with human CD19 on cells, the “EC50 of cell killing (MTS cytotoxicity), Nalm-6, E:T=5:1” value worked out at 0.0376 µg/mL; the “EC50 of cell killing (MTS cytotoxicity), Nalm-6, E:T=10:1” value is 0.0147 µg/mL; the “EC50 of cell killing (MTS cytotoxicity), REH” value came to 0.0104 µg/mL; the “EC50 of cell killing (MTS cytotoxicity), Raji” value is 0.159 µg/mL.

B2: anti-CD19 scFv (SCACD19) (scFv)
scFv: DIQLTQSPASLAVSLGQRATISCKASQSVDYDGDSYLNWYQQIPGQPPKLLIYDASNLVSGIPPRFSGSGSGTDFTLNIHPVEKVDAATYHCQQSTEDPWTFGGGTKLEIKGCGGGSGGGGSGGGGSQVQLQQSGAELVRPGSSVKISCKASGYAFSSYWMNWVKQRPGQGLEWIGQIWPGDGDTNYNGKFKGKATLTADESSSTAYMQLSSLASEDSAVYFCARRETTTVGRYYYAMDYWGQGTTVTVSSHHHHHH
In experiment [1], B2 returned a Kd of 0.0653 nM, a koff of 0.000343 s⁻¹ and a kon of 5.26e+06 M⁻¹ s⁻¹.

B3: anti-CD19 scFv-Linker (anti-CD19-Linker) (scFv)
scFv: DIQLTQSPASLAVSLGQRATISCKASQSVDYDGDSYLNWYQQIPGQPPKLLIYDASNLVSGIPPRFSGSGSGTDFTLNIHPVEKVDAATYHCQQSTEDPWTFGGGTKLEIKGCGGGSGGGGSGGGGSQVQLQQSGAELVRPGSSVKISCKASGYAFSSYWMNWVKQRPGQGLEWIGQIWPGDGDTNYNGKFKGKATLTADESSSTAYMQLSSLASEDSAVYFCARRETTTVGRYYYAMDYWGQGTTVTVSSHHHHHH
modifications: conjugated to a linker (linker is a much smaller PEG11); the residue is not given
notes: Linker conjugate of SCACD19; also called SCACD19-linker
In experiment [1], B3 returned a Kd of 0.111 nM, a koff of 0.000309 s⁻¹ and a kon of 2.79e+06 M⁻¹ s⁻¹.
